Source: US8097440B1, “Engineered microorganisms capable of producing target compounds under anaerobic conditions” (Gevo, Inc., priority 2008, dated 2012)
Changes are numbered by the printed parent chain. Numbers in names are those of the source.

Columns and labels:
[1] = test system: CC(C)C=O; assay: cells, lysate or membranes; conditions: conversion to isobutanol
[2] = substrate: NC(=O)C1=CN([C@@H]2O[C@H](COP(=O)(O)OP(=O)(O)OC[C@H]3O[C@@H](n4cnc5c(N)ncnc54)[C@H](O)[C@@H]3O)[C@@H](O)[C@H]2O)C=CC1; assay: KARI cuvette assay, purified Ec_IlvC^B8A71S-his6; assay type: biochemical, E. coli
Method: (§1) KARI cuvette assay: KARI activity was assayed kinetically by monitoring the decrease in NAD(P)H concentration by measuring the absorbance at 340 nm. A reaction buffer was prepared containing 250 mM potassium phosphate pH 7, 1 mM DTT and 10 mM MgCl2. Cell pellets were resuspended (0.25 g wet weight/mL buffer) in 250 mM potassium phosphate (KPi) buffer containing 1 mM DTT and 10 mM MgCl2. The resuspended cells were lysed by sonication for 1 min with a 50% duty cycle and pelleted at 11000×g and 4° C. for 15 min. A reaction mixture consisting of 910 μl reaction buffer, 50 μl acetolactate, and 20 μl lysate was prepared in a cuvette. The reaction was initiated by addition of 20 μL of 10 mM NAD(P)H. A substrate free control was conducted using reaction buffer without the addition of acetolactate.
(§2) Purification of KARI: Cell pellets used for purification were resuspended in purification buffer A (20 mM Tris, 20 mM imidazol, 100 mM NaCl, 10 mM MgCl2, pH 7.4). KARI was purified by IMAC (Immobilized metal affinity chromatography) over a 1 ml Histrap High Performance (histrap HP) column pre-charged with Nickel (GE Healthcare) using an Akta FPLC system (GE Healthcare). The column was equilibrated with four column volumes (cv) of buffer A. After injecting the crude extract, the column was washed with buffer A for 2 cv, followed by a wash step with a mixture of 10% elution buffer B (20 mM Tris, 300 mM imidazol, 100 mM NaCl, 10 mM MgCl2, pH 7.4) for 5 cv. KARI variants were eluted at 40% buffer B and stored at 4° C.
(§3) As a next step, the gene encoding variant Ec_llvC^Q110V-his6 (SEQ ID NO: 23) was used as template to generate individual combinations of the mutation Q110V with other mutations: R68L, A71T, A71S, R76G, R76S, R76T, S78D, and R76D. After screening the variants as described above, the most promising ones were expressed, purified, and characterized. Table 29 lists the KM values in μM on NADPH and NADH for Ec_llvC^his6, Ec_llvC^Q110V-his6, and variants of Ec_llvC^Q110V-his6. […] The A71S mutation was introduced into Ec_llvC^B8-his6 resulting in a variant Ec_llvC^B8A71S-his6, which yielded 44% catalytic efficiency on NADH compared to the catalytic efficiency of wild-type KARI on NADPH (FIG. 19 and Table 30).

[3] = substrate: NC(=O)C1=CN([C@@H]2O[C@H](COP(=O)(O)OP(=O)(O)OC[C@H]3O[C@@H](n4cnc5c(N)ncnc54)[C@H](OP(=O)(O)O)[C@@H]3O)[C@@H](O)[C@H]2O)C=CC1; assay: KARI cuvette assay, purified Ec_IlvC^B8A71S-his6; assay type: biochemical, E. coli; conditions: other: purified; acetolactate as substrate
Method: as §1, §2, §3

[4] = substrate: CC(C)C=O; assay: Alcohol dehydrogenase kinetic assay, Dm_Adh; assay type: biochemical, Drosophila melanogaster; conditions: conversion to isobutanol
Method: (§4) E. coli strain GEVO1745 was transformed by electroporation with one of plasmids pGV1705-A, pGV1748-A, pGV1749-A, or pGV1778-A. 50 mL of TB medium (23.1 g/L KH2PO4, 125.4 g/L K2HPO4, 12 g/L Bacto-tryptone, 24 g/L yeast extract, 4 ml/L glycerol) were inoculated to an initial OD600 of 0.2 using a 3 mL overnight LB culture of a single colony. The 50 mL culture was allowed to grow for 3-4 hrs at 250 rpm and 37° C. Protein expression was induced at an OD600 of 2-2.5 by the addition of IPTG to a final concentration of 1 mM. After the addition of IPTG, protein expression was allowed to continue for 20-24 hours at 225 rpm and 25° C.
(§5) Alcohol dehydrogenase (ADH) activity was assayed kinetically by monitoring the decrease in NAD(P)H concentration by measuring the absorbance at 340 nm. A reaction buffer was prepared containing 0.1 M potassium phosphate, 0.4 mM NAD(P)H, 10 mM isobutyraldehyde, 1 mM DTT, and 1 mM PMSF. Cell pellets were resuspended in 0.1 M potassium phosphate buffer containing 1 mM DTT and 1 mM PMSF at one fifth of the culture volume, i.e. 10 mL resuspension buffer for cell pellet from a 50 mL culture. The resuspended cells were lysed by sonication for 1 min with a 50% duty cycle. The reaction was initiated by the addition of 0.5 mL of the reaction buffer to 0.5 mL of clarified lysate in a cuvette. […]

[5] = substrate: CC(C)C=O; assay: Alcohol dehydrogenase kinetic assay, Ec_FucO; assay type: biochemical, E. coli; conditions: conversion to isobutanol
Method: as §4, §5

[6] = substrate: NC(=O)C1=CN([C@@H]2O[C@H](COP(=O)(O)OP(=O)(O)OC[C@H]3O[C@@H](n4cnc5c(N)ncnc54)[C@H](O)[C@@H]3O)[C@@H](O)[C@H]2O)C=CC1; assay: KARI assay, purified Ec_IlvC^P2D1-A1-his6; assay type: biochemical, E. coli; conditions: other: expressed in yeast GEVO1186, purified; 30.0 °C
Method: as §1, §2
Improved variants were expressed and purified from GEVO1186. 20 mL SC-URA medium overnight cultures were grown at 30° C. and 250 rpm in 250 mL flasks and were then used to inoculate 96 well deep well plates on the next morning. 50 μL of the overnight cultures were transferred into 600 μL SC-URA medium per well. The plates were then grown at 30° C. and 250 rpm in a humidified plate shaker for 8 h. In order to the harvest, the cultures were transferred into 50 mL Falcon tubes and then spun down at 4° C. and 5,000 rpm for 10 min. […]

[7] = substrate: NC(=O)C1=CN([C@@H]2O[C@H](COP(=O)(O)OP(=O)(O)OC[C@H]3O[C@@H](n4cnc5c(N)ncnc54)[C@H](O)[C@@H]3O)[C@@H](O)[C@H]2O)C=CC1; assay: KARI assay, purified Ec_IlvC^P2D1-his6; assay type: biochemical, E. coli; conditions: other: expressed in yeast GEVO1186, purified; 30.0 °C
Method: as §1, §2
(§6) Improved variants were expressed and purified from GEVO1186. 20 mL SC-URA medium overnight cultures were grown at 30° C. and 250 rpm in 250 mL flasks and were then used to inoculate 96 well deep well plates on the next morning. 50 μL of the overnight cultures were transferred into 600 μL SC-URA medium per well. The plates were then grown at 30° C. and 250 rpm in a humidified plate shaker for 8 h. In order to the harvest, the cultures were transferred into 50 mL Falcon tubes and then spun down at 4° C. and 5,000 rpm for 10 min. The pellets were frozen until they were processed and purified as described in Example 14 above.
(§7) Results: Two rounds of error-prone PCR and screening were carried out. The libraries (˜2400 clones per library) were screened using the KARI high-throughput assay. […] In the first round variant Ec_llvC^P2D1-his6 (SEQ ID NO: 38), encoded by Ec_ilvC_coSc^P2D1-his6 (SEQ ID NO: 37) was identified carrying the following mutations: D146G and G185R. This variant served as parent for the second round of error-prone PCR and screening which yielded variant Ec_llvC^P2D1-A1-his6 (SEQ ID NO: 42), encoded by Ec_ilvC_coSc^P2D1-A1-his6 (SEQ ID NO: 41) with one additional mutation (K433E). A two-fold improvement of the specific activity in lysate and in the purified enzyme was observed after two rounds of error-prone PCR.

[8] = substrate: NC(=O)C1=CN([C@@H]2O[C@H](COP(=O)(O)OP(=O)(O)OC[C@H]3O[C@@H](n4cnc5c(N)ncnc54)[C@H](OP(=O)(O)O)[C@@H]3O)[C@@H](O)[C@H]2O)C=CC1; assay: KARI assay, purified Ec_IlvC^P2D1-his6; assay type: biochemical, E. coli; conditions: other: expressed in yeast GEVO1186, purified; 30.0 °C
Method: as §1, §2, §6, §7

[9] = other: purified, acetolactate as substrate

## Klebsiella pneumoniae propanediol dehydrogenase Kp_DhaT, SEQ ID NO: 63 (Klebsiella pneumoniae)
[1]; other: NADH as cofactor
  Km: 1300 µM
[1]; other: NADPH as cofactor
  Km: 600 µM

B1: E. coli KARI Ec_IlvC variant Ec_IlvC^B8A71S-his6 (Q110V, S78D, A71S), SEQ ID NO: 29 (Escherichia coli K-12; A71S/Q110V/S78D) (protein)
chain: MANYFNTLNLRQQLAQLGKCRFMGRDEFADGASYLQGKKVVIVGCGAQGLNQGLNMRDSGLDISYALRKESIAEKRADWRKATENGFKVGTYEELIPQADLVINLTPDKVHSDVVRTVQPLMKDGAALGYSHGFNIVEVGEQIRKDITVVMVAPKCPGTEVREEYKRGFGVPTLIAVHPENDPKGEGMAIAKAWAAATGGHRAGVLESSFVAEVKSDLMGEQTILCGMLQAGSLLCFDKLVEEGTDPAYAEKLIQFGWETITEALKQGGITLMMDRLSNPAKLRAYALSEQLKEIMAPLFQKHMDDIISGEFSSGMMADWANDDKKLLTWREETGKTAFETAPQYEGKIGEQEYFDKGVLMIAMVKAGVELAFETMVDSGIIEESAYYESLHELPLIANTIARKRLYEMNVVISDTAEYGNYLFSYACVPLLKPFMAELQPGDLGKAIPEGAVDNGQLRDVNEAIRSHAIEQVGKKLRGYMTDMKRIAVAGLEHHHHHH
[2]; [9]
  Km: 53.5 µM
  kcat: 2.0 s⁻¹
  kcat/Km: 38,330 M^−1 * s^−1
[2]; with NADH
  kcat/Km: 37500 M⁻¹ s⁻¹
[3]
  Km: 63.4 µM
  kcat: 2.4 s⁻¹
  kcat/Km: 37,459 M^−1 * s^−1

B2: Drosophila melanogaster alcohol dehydrogenase Dm_Adh, SEQ ID NO: 61 (Drosophila melanogaster) (protein)
chain: MSFTLTNKNVIFVAGLGGIGLDTSKELLKRDLKNLVILDRIENPAAIAELKAINPKVTVTFYPYDVTVPIAETTKLLKTIFAQLKTVDVLINGAGILDDHQIERTIAVNYTGLVNTTTAILDFWDKRKGGPGGIICNIGSVTGFNAIYQVPVYSGTKAAVVNFTSSLAKLAPITGVTAYTVNPGITRTTLVHTFNSWLDVEPQVAEKLLAHPTQPSLACAENFVKAIELNQNGAIWKLDLGTLEAIQWTKHWDSGI
notes: clarified crude lysate
[4]; other: NADH as cofactor
  Km: 900 µM
[4]; other: NADPH as cofactor
  Km: 2700 µM

B3: Escherichia coli propanediol dehydrogenase Ec_FucO, SEQ ID NO: 65 (Escherichia coli K-12) (protein)
chain: MMANRMILNETAWFGRGAVGALTDEVKRRGYQKALIVTDKTLVQCGVVAKVTDKMDAAGLAWAIYDGVVPNPTITVVKEGLGVFQNSGADYLIAIGGGSPQDTCKAIGIISNNPEFADVRSLEGLSPTNKPSVPILAIPTTAGTAAEVTINYVITDEEKRRKFVCVDPHDIPQVAFIDADMMDGMPPALKAATGVDALTHAIEGYITRGAWALTDALHIKAIEIIAGALRGSVAGDKDAGEEMALGQYVAGMGFSNVGLGLVHGMAHPLGAFYNTPHGVANAILLPHVMRYNADFTGEKYRDIARVMGVKVEGMSLEEARNAAVEAVFALNRDVGIPPHLRDVGVRKEDIPALAQAALDDVCTGGNPREATLEDIVELYHTAW
notes: clarified crude lysate
[5]; other: NADH as cofactor
  Km: 800 µM
[5]; other: NADPH as cofactor
  Km: 200 µM

B4: E. coli KARI Ec_IlvC variant Ec_IlvC^P2D1-A1-his6 (Ec_IlvC^P2D1-his6 with K433E), SEQ ID NO: 42 (Escherichia coli K-12; A71S/D146G/G185R/K433E/Q110V/R76D/S78D) (protein)
chain: MANYFNTLNLRQQLAQLGKCRFMGRDEFADGASYLQGKKVVIVGCGAQGLNQGLNMRDSGLDISYALRKESIAEKDADWRKATENGFKVGTYEELIPQADLVINLTPDKVHSDVVRTVQPLMKDGAALGYSHGFNIVEVGEQIRKGITVVMVAPKCPGTEVREEYKRGFGVPTLIAVHPENDPKREGMAIAKAWAAATGGHRAGVLESSFVAEVKSDLMGEQTILCGMLQAGSLLCFDKLVEEGTDPAYAEKLIQFGWETITEALKQGGITLMMDRLSNPAKLRAYALSEQLKEIMAPLFQKHMDDIISGEFSSGMMADWANDDKKLLTWREETGKTAFETAPQYEGKIGEQEYFDKGVLMIAMVKAGVELAFETMVDSGIIEESAYYESLHELPLIANTIARKRLYEMNVVISDTAEYGNYLFSYACVPLLEPFMAELQPGDLGKAIPEGAVDNGQLRDVNEAIRSHAIEQVGKKLRGYMTDMKRIAVAGHHHHHH
[6]
  Km: 26 µM
  kcat: 4.3 s⁻¹
  kcat/Km: 167,687 M^−1 * S^−1

B5: E. coli KARI Ec_IlvC variant Ec_IlvC^P2D1-his6 (Ec_IlvC^6E6-his6 with D146G and G185R), SEQ ID NO: 38 (Escherichia coli K-12; A71S/D146G/G185R/Q110V/R76D/S78D) (protein)
chain: B4 chain with E433K
[7]
  Km: 40 µM
  kcat: 3.3 s⁻¹
  kcat/Km: 82,650 M^−1 * S^−1
[8]
  Km: 1432 µM
  kcat: 0.54 s⁻¹
  kcat/Km: 377 M^−1 * S^−1
